Test results published in patent US20060263361A1.
Where “and” joins values, the source holds several entries; their conditions need not be identical. Equal values may be shown once. Each block holds one substance with its values, some of them ahead of it.

Experiments:
[1] = target: recombinant KIR2DL1 protein (entire extracellular domain, produced in E. coli, immobilized) (human) (UniProt P43626); assay: Biacore, KIR2DL1 chip; second Ab injected alone
[2] = target: recombinant KIR2DL3 protein (entire extracellular domain, produced in E. coli, immobilized) (human) (UniProt P43628); assay: Biacore, KIR2DL3 chip; second Ab injected alone
immobilized KIR 2DS1 [3] = target: immobilized KIR 2DS1 (UniProt Q14954); assay: Biacore, KIR2DS1 chip; second Ab injected alone
[4] = target: recombinant KIR2DL1 protein (entire extracellular domain, produced in E. coli, immobilized) (human) (UniProt P43626); assay: Biacore, KIR2DL1 chip; first Ab Pan2D vs competitor (second Ab) EB6
[5] = target: recombinant KIR2DL1 protein (entire extracellular domain, produced in E. coli, immobilized) (human) (UniProt P43626); assay: Biacore, KIR2DL1 chip; first Ab Pan2D vs competitor (second Ab) 1-4F1
[6] = target: recombinant KIR2DL1 protein (entire extracellular domain, produced in E. coli, immobilized) (human) (UniProt P43626); assay: Biacore, KIR2DL1 chip; first Ab Pan2D vs competitor (second Ab) 1-6F1
[7] = target: recombinant KIR2DL1 protein (entire extracellular domain, produced in E. coli, immobilized) (human) (UniProt P43626); assay: Biacore, KIR2DL1 chip; first Ab Pan2D vs competitor (second Ab) 1-6F5
[8] = target: recombinant KIR2DL1 protein (entire extracellular domain, produced in E. coli, immobilized) (human) (UniProt P43626); assay: Biacore, KIR2DL1 chip; first Ab Pan2D vs competitor (second Ab) 1-7F9
[9] = target: recombinant KIR2DL1 protein (entire extracellular domain, produced in E. coli, immobilized) (human) (UniProt P43626); assay: Biacore, KIR2DL1 chip; first Ab Pan2D vs competitor (second Ab) DF200
[10] = target: recombinant KIR2DL3 protein (entire extracellular domain, produced in E. coli, immobilized) (human) (UniProt P43628); assay: Biacore, KIR2DL3 chip; first Ab Pan2D vs competitor (second Ab) 1-4F1
[11] = target: recombinant KIR2DL3 protein (entire extracellular domain, produced in E. coli, immobilized) (human) (UniProt P43628); assay: Biacore, KIR2DL3 chip; first Ab Pan2D vs competitor (second Ab) 1-6F1
[12] = target: recombinant KIR2DL3 protein (entire extracellular domain, produced in E. coli, immobilized) (human) (UniProt P43628); assay: Biacore, KIR2DL3 chip; first Ab Pan2D vs competitor (second Ab) 1-6F5
[13] = target: recombinant KIR2DL3 protein (entire extracellular domain, produced in E. coli, immobilized) (human) (UniProt P43628); assay: Biacore, KIR2DL3 chip; first Ab Pan2D vs competitor (second Ab) 1-7F9
[14] = target: recombinant KIR2DL3 protein (entire extracellular domain, produced in E. coli, immobilized) (human) (UniProt P43628); assay: Biacore, KIR2DL3 chip; first Ab Pan2D vs competitor (second Ab) DF200
[15] = target: recombinant KIR2DL3 protein (entire extracellular domain, produced in E. coli, immobilized) (human) (UniProt P43628); assay: Biacore, KIR2DL3 chip; first Ab Pan2D vs competitor (second Ab) gl183
immobilized KIR 2DS1 [16] = target: immobilized KIR 2DS1 (UniProt Q14954); assay: Biacore, KIR2DS1 chip; first Ab Pan2D vs competitor (second Ab) 1-4F1
immobilized KIR 2DS1 [17] = target: immobilized KIR 2DS1 (UniProt Q14954); assay: Biacore, KIR2DS1 chip; first Ab Pan2D vs competitor (second Ab) 1-7F9
immobilized KIR 2DS1 [18] = target: immobilized KIR 2DS1 (UniProt Q14954); assay: Biacore, KIR2DS1 chip; first Ab Pan2D vs competitor (second Ab) DF200
[19] = target: recombinant KIR2DL1 protein (entire extracellular domain, produced in E. coli, immobilized) (human) (UniProt P43626); assay: Biacore, KIR2DL1 chip; first Ab DF200 vs competitor (second Ab) EB6
[20] = target: recombinant KIR2DL1 protein (entire extracellular domain, produced in E. coli, immobilized) (human) (UniProt P43626); assay: Biacore, KIR2DL1 chip; first Ab DF200 vs competitor (second Ab) 1-4F1
[21] = target: recombinant KIR2DL1 protein (entire extracellular domain, produced in E. coli, immobilized) (human) (UniProt P43626); assay: Biacore, KIR2DL1 chip; first Ab DF200 vs competitor (second Ab) 1-6F1
[22] = target: recombinant KIR2DL1 protein (entire extracellular domain, produced in E. coli, immobilized) (human) (UniProt P43626); assay: Biacore, KIR2DL1 chip; first Ab DF200 vs competitor (second Ab) 1-6F5
[23] = target: recombinant KIR2DL1 protein (entire extracellular domain, produced in E. coli, immobilized) (human) (UniProt P43626); assay: Biacore, KIR2DL1 chip; first Ab DF200 vs competitor (second Ab) 1-7F9
[24] = target: recombinant KIR2DL1 protein (entire extracellular domain, produced in E. coli, immobilized) (human) (UniProt P43626); assay: Biacore, KIR2DL1 chip; first Ab DF200 vs competitor (second Ab) Pan2D
[25] = target: recombinant KIR2DL3 protein (entire extracellular domain, produced in E. coli, immobilized) (human) (UniProt P43628); assay: Biacore, KIR2DL3 chip; first Ab DF200 vs competitor (second Ab) 1-4F1
[26] = target: recombinant KIR2DL3 protein (entire extracellular domain, produced in E. coli, immobilized) (human) (UniProt P43628); assay: Biacore, KIR2DL3 chip; first Ab DF200 vs competitor (second Ab) 1-6F1
[27] = target: recombinant KIR2DL3 protein (entire extracellular domain, produced in E. coli, immobilized) (human) (UniProt P43628); assay: Biacore, KIR2DL3 chip; first Ab DF200 vs competitor (second Ab) 1-6F5
[28] = target: recombinant KIR2DL3 protein (entire extracellular domain, produced in E. coli, immobilized) (human) (UniProt P43628); assay: Biacore, KIR2DL3 chip; first Ab DF200 vs competitor (second Ab) 1-7F9
[29] = target: recombinant KIR2DL3 protein (entire extracellular domain, produced in E. coli, immobilized) (human) (UniProt P43628); assay: Biacore, KIR2DL3 chip; first Ab DF200 vs competitor (second Ab) Pan2D
[30] = target: recombinant KIR2DL3 protein (entire extracellular domain, produced in E. coli, immobilized) (human) (UniProt P43628); assay: Biacore, KIR2DL3 chip; first Ab DF200 vs competitor (second Ab) gl183
immobilized KIR 2DS1 [31] = target: immobilized KIR 2DS1 (UniProt Q14954); assay: Biacore, KIR2DS1 chip; first Ab DF200 vs competitor (second Ab) 1-4F1
immobilized KIR 2DS1 [32] = target: immobilized KIR 2DS1 (UniProt Q14954); assay: Biacore, KIR2DS1 chip; first Ab DF200 vs competitor (second Ab) 1-7F9
immobilized KIR 2DS1 [33] = target: immobilized KIR 2DS1 (UniProt Q14954); assay: Biacore, KIR2DS1 chip; first Ab DF200 vs competitor (second Ab) Pan2D
[34] = target: recombinant KIR2DL3 protein (entire extracellular domain, produced in E. coli, immobilized) (human) (UniProt P43628); assay: Biacore, KIR2DL3 chip; first Ab gl183 vs competitor (second Ab) 1-4F1
[35] = target: recombinant KIR2DL3 protein (entire extracellular domain, produced in E. coli, immobilized) (human) (UniProt P43628); assay: Biacore, KIR2DL3 chip; first Ab gl183 vs competitor (second Ab) 1-6F1
[36] = target: recombinant KIR2DL3 protein (entire extracellular domain, produced in E. coli, immobilized) (human) (UniProt P43628); assay: Biacore, KIR2DL3 chip; first Ab gl183 vs competitor (second Ab) 1-7F9
[37] = target: recombinant KIR2DL3 protein (entire extracellular domain, produced in E. coli, immobilized) (human) (UniProt P43628); assay: Biacore, KIR2DL3 chip; first Ab gl183 vs competitor (second Ab) DF200
[38] = target: recombinant KIR2DL3 protein (entire extracellular domain, produced in E. coli, immobilized) (human) (UniProt P43628); assay: Biacore, KIR2DL3 chip; first Ab gl183 vs competitor (second Ab) Pan2D
[39] = target: recombinant KIR2DL1 protein (entire extracellular domain, produced in E. coli, immobilized) (human) (UniProt P43626); assay: Biacore, KIR2DL1 chip; first Ab EB6 vs competitor (second Ab) 1-4F1
[40] = target: recombinant KIR2DL1 protein (entire extracellular domain, produced in E. coli, immobilized) (human) (UniProt P43626); assay: Biacore, KIR2DL1 chip; first Ab EB6 vs competitor (second Ab) 1-6F1
[41] = target: recombinant KIR2DL1 protein (entire extracellular domain, produced in E. coli, immobilized) (human) (UniProt P43626); assay: Biacore, KIR2DL1 chip; first Ab EB6 vs competitor (second Ab) 1-7F9
[42] = target: recombinant KIR2DL1 protein (entire extracellular domain, produced in E. coli, immobilized) (human) (UniProt P43626); assay: Biacore, KIR2DL1 chip; first Ab EB6 vs competitor (second Ab) DF200
[43] = target: recombinant KIR2DL1 protein (entire extracellular domain, produced in E. coli, immobilized) (human) (UniProt P43626); assay: Biacore, KIR2DL1 chip; first Ab EB6 vs competitor (second Ab) Pan2D
[44] = target: recombinant KIR2DL1 protein (entire extracellular domain, produced in E. coli, immobilized) (human) (UniProt P43626); assay: Biacore, KIR2DL1 chip; first Ab EB6 vs competitor (second Ab) EB6 (self)

immobilized KIR 2DS1, sequence (Q14954 22-245 limits assumed): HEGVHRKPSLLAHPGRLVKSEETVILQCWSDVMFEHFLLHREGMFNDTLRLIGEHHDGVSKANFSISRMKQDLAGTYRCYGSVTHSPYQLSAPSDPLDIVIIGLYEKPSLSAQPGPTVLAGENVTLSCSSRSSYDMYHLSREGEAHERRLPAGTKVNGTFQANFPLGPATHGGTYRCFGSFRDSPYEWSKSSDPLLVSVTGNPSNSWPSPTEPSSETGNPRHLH
recombinant KIR2DL1 protein (entire extracellular domain, produced in E. coli, immobilized) (human), sequence (P43626 22-245): as the sequence (Q14954 22-245 limits assumed) above, with K70T, L90V, P114L, T154P, N163D, R182H, E216K counted along it
recombinant KIR2DL3 protein (entire extracellular domain, produced in E. coli, immobilized) (human), sequence (P43628 22-245): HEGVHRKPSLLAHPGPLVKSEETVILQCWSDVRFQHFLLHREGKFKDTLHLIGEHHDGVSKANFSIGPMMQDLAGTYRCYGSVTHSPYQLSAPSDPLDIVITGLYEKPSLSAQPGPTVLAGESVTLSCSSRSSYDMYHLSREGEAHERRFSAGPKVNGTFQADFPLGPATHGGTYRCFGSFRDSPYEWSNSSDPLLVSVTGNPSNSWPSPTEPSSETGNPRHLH

RU, second antibody alone [1]: 545 RU and 475 RU
RU, second antibody alone [2]: 2400 RU and 870 RU and 990 RU
RU, second antibody alone (immobilized KIR 2DS1 [3]): 1350 RU
percent inhibition of second antibody binding [4]: 90%
percent inhibition of second antibody binding [5]: 95%
percent inhibition of second antibody binding [6]: 12%
percent inhibition of second antibody binding [7]: 13%
percent inhibition of second antibody binding [8]: 2%
percent inhibition of second antibody binding [9]: 90%
percent inhibition of second antibody binding [10]: 68%
percent inhibition of second antibody binding [11]: 8%
percent inhibition of second antibody binding [12]: 18%
percent inhibition of second antibody binding [13]: 15%
percent inhibition of second antibody binding [14]: 95%
percent inhibition of second antibody binding [15]: 85%
percent inhibition of second antibody binding (immobilized KIR 2DS1 [16]): 100%
percent inhibition of second antibody binding (immobilized KIR 2DS1 [17]): 45%
percent inhibition of second antibody binding (immobilized KIR 2DS1 [18]): 100%
Substance: monoclonal antibody NKVSF1

RU, second antibody alone [1]: 600 RU and 350 RU
RU, second antibody alone (immobilized KIR 2DS1 [3]): 900 RU
percent inhibition of second antibody binding [19]: 90%
percent inhibition of second antibody binding [20]: 92%
percent inhibition of second antibody binding [21]: 15%
percent inhibition of second antibody binding [22]: 15%
percent inhibition of second antibody binding [23]: 27%
percent inhibition of second antibody binding [24]: 80%
percent inhibition of second antibody binding [25]: 75%
percent inhibition of second antibody binding [26]: 16%
percent inhibition of second antibody binding [27]: 4%
percent inhibition of second antibody binding [28]: 62%
percent inhibition of second antibody binding [29]: 75%
percent inhibition of second antibody binding [30]: 20%
percent inhibition of second antibody binding (immobilized KIR 2DS1 [31]): 87%
percent inhibition of second antibody binding (immobilized KIR 2DS1 [32]): 15%
percent inhibition of second antibody binding (immobilized KIR 2DS1 [33]): 70%
Substance: monoclonal antibody DF200 produced by hybridoma DF200

RU, second antibody alone [2]: 1240 RU and 800 RU and 620 RU
percent inhibition of second antibody binding [34]: 75%
percent inhibition of second antibody binding [35]: 18%
percent inhibition of second antibody binding [36]: 76%
percent inhibition of second antibody binding [37]: 8%
percent inhibition of second antibody binding [38]: 40%
Substance: GL183 (IgG1 anti KIR2DL3) (antibody)

RU, second antibody alone [1]: 460 RU and 260 RU
percent inhibition of second antibody binding [39]: 48%
percent inhibition of second antibody binding [40]: 23%
percent inhibition of second antibody binding [41]: 65%
percent inhibition of second antibody binding [42]: 60%
percent inhibition of second antibody binding [43]: 40%
percent inhibition of second antibody binding [44]: 57%
Substance: EB6 (IgG1 anti KIR2DL1) (antibody)
